The record followed here is publication PMC10325903, “Prediction of cooperative homeodomain DNA binding sites from high-throughput-SELEX data”.

One data set concerns the target T1, Barx1 HD fragment (UniProt Q9ER42 95-221).
T1 sequence: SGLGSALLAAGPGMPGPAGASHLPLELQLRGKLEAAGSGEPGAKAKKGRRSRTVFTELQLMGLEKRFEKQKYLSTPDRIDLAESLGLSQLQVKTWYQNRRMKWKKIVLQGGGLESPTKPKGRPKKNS
As to the kind of experiment: EMSA; EMSA, 34 nM IRDye700 probe, room temperature 20 min, 4% polyacrylamide gel 150 V 2 h; binding buffer as in cited ref 35 (not given). The note with it: protein: recombinant; tags: N-terminal 6xHis (pET-14b or pET-14P; may be cleaved); chain copies: 2; label: 5' IRDye700 on bottom strand; blunt.

For a further data set, the target named is Bsx HD fragment (UniProt Q810B3 84-193). The description is as above. The note with it: protein: recombinant; tags: N-terminal 6xHis (pET-14b or pET-14P; may be cleaved); chain copies: 2; label: 5' IRDye700 on bottom strand; blunt.
Chain of Bsx HD fragment (Q810B3 84-193): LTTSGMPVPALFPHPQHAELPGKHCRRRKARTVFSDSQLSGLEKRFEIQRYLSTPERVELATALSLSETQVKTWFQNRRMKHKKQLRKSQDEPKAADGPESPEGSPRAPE

B1: Barx1_SELEX_2+1 (dsDNA)
DNA 1: TATTCGAAACAATTAAATAGACGATTACTGTAGTGCGGGCGTGGCT
DNA 2: AGCCACGCCCGCACTACAGTAATCGTCTATTTAATTGTTTCGAATA
B1: the “cooperativity factor (tau)” value with Barx1 HD fragment was determined as 0.7 ± 0.2 Tau cooperativity factor.

B2: Bsx_SELEX_1 (dsDNA)
DNA 1: TATGAAATCAATTATCTCATTAAGTTCGTAGTGCGGGCGTGGCT
DNA 2: AGCCACGCCCGCACTACGAACTTAATGAGATAATTGATTTCATA
For B2, the “cooperativity factor (tau)” value with Bsx HD fragment turned out to be 9.8 ± 1 Tau cooperativity factor.

B3: Bsx_SELEX_1+1 (dsDNA)
DNA 1: TATGAAATCAATTATCGTCATTAAGTTCGTAGTGCGGGCGTGGCT
DNA 2: AGCCACGCCCGCACTACGAACTTAATGACGATAATTGATTTCATA
B3: the “cooperativity factor (tau)” value in the data set with Bsx HD fragment was 0.9 ± 0.3 Tau cooperativity factor.
